# Reference: IntAct's records for PubMed 17998537
# B1: Mitochondrial division protein 1 (Saccharomyces cerevisiae), P47025 (parent)
# chain: MSVNDQITHIGKTLSTTASAFLNYQKSNSNTQDVLTNNGPYKNLLSNTVNNASSTSYFYKRTEHGRFVKNASNTFEDIYSKTRRGDVFRNKFTDNKTCFRMLTYISDDLLNEIPTKEGLKSDADGKLLTEGGENENLRKNASKKETSLFQGFKSYLPIAELAIENTERLNYDTNGTSGTVGAKDVMSKTNERDEIHTELPNFQDSFLIPPGVETKKISSSYSPSALKSFSQTLVNSLEFLNIQKNSTLSEIRDIEVEVENLRQKKEKLLGKIANIEQNQLLLEDNLKQIDDRLDFLEEYGLEVIEANSDENAEDDGMSERKALKNDAIRNEGVTTESISSEASNLPPRRRQQLRDDNSLNRLGAFYSKSKKRHRKSFPTFQQLYEPGTKIGSIMSTHDDFLTCLDFDAPFGTLCTAGYLDHTVKIWDLSKQNKIGELAGHLATINCMQINRDYGTLVTGGRDAALKLWNLNLAQQLYQETQNLTSPTNHIDSPCVHTFEAHTDEVTALSLDPSFLVSGSQDRTIRQWDLRSGKCLQTIDLSFANVLTTSTNVDLSKSTLLTQRNERPSIGALQSFDAALATGTKDGVVRLWDLRSGKVIRTLKGHTDAITSLKFDSACLVTGSYDRTVRIWDLRTGLLNKFHAYSAPVLSLDLFQENAAVVVADEPSVQIYDSEKDESWSCVEQGNETSVSTVKYKENYMVEGRENGDVNIWAV
# partner: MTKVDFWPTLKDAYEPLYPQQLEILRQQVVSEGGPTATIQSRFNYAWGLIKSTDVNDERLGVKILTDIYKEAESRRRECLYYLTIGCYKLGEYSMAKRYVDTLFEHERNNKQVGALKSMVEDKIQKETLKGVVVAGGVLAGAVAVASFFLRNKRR
# B2: Mitochondrial fission 1 protein (Saccharomyces cerevisiae), P40515 (parent)
# chain: B1 partner
# partner: B1 chain
# B3: CCR4-associated factor 4 (Saccharomyces cerevisiae), P36130 (parent)
# chain: MGSGDTRGESSLVAKPIEIILNKLPHAILAQQQFQKYITSPIYRYLSKLLLFREVAWPESTKDTQKGQVGIFSFQNNYADSATTFRILAHLDEQRYPLPNGAAEKNLPSLFEGFKATVSIIQQRLLLDNVDGATNSDKEKYVQLPDINTGFVNKTYSRIDLTHLLEDVETNVENLSINKTLEMDELTRLDSMINELESRKLKILERVKHIDSKSTNLENDVTLIKDRINFIEEYNLEADREQSLRKQMEEERSSEASSFTQNEEAISSLCDVESKDTRLKDFYKMPHEKSHDKNRQIISETYSRNTTAFRMTIPHGEHGNSITALDFDTPWGTLCSSSYQDRIVKVWDLNHGIQVGELPGHLATVNCMQIDKKNYNMLITGSKDATLKLWDLNLSREIYLDHSPLKEKTEEIVTPCIHNFELHKDEITALSFDSEALVSGSRDKKIFHWDLTTGKCIQQLDLIFTPTHSDIKMPARSLNNGACLLGTEAPMIGALQCYNSALATGTKDGIVRLWDLRVGKPVRLLEGHTDGITSLKFDSEKLVTGSMDNSVRIWDLRTSSILDVIAYDLPVSSLDFDGKLITVGANEGGVNVFNMERDEHWMTPEPPHSLDGDELSRRIAIVKYKDGFLINGHNDGDINVWTL
# partner: B1 partner
# Variants of: B1
# Settings: with fis1_yeast FIS1, P40515
row,Variant,effect of a mutation on the interaction
1,F99A;R100A,disrupting interaction
2,I105A,disrupting interaction
3,L148A,disrupting interaction
4,F149A,disrupting interaction
5,F152A,disrupting interaction

# Variants of: B2
# Settings: with mdv1_yeast MDV1, P47025
row,Variant,effect of a mutation on the interaction
1,I24A;L25A,disrupting interaction
2,F43A;N44A,disrupting interaction
3,W47A,disrupting interaction

# Variants of: B3
# Settings: with fis1_yeast FIS1, P40515
row,Variant,effect of a mutation on the interaction
1,F85A;R86A,disrupting interaction strength
2,L88A,disrupting interaction strength
3,L110A,disrupting interaction strength
4,F111A,disrupting interaction strength
5,F114A,disrupting interaction strength
